The values that follow come from publication PMC13280575, “The PER2:BRCA1:POU2F1(OCT-1) ternary complex represents a multi-component scaffold model for circadian gene regulation”.

In this data set the target is POU2F1 (OCT-1) POU DNA-binding domain, wild type (Homo sapiens, UniProt P14859 280-438). Kind of data set: EMSA; dose-dependent, saturation at ~0.8 uM protein; EMSA: 20 mM HEPES pH 7.9, 2 mM MgCl2, 10% glycerol, 2 mM DTT, 36 ng poly(dI-dC), 20 min room temperature; 5% native gel, 0.5x TBE, 4 C. The settings on record: protein: recombinant; tags: GST fusion, thrombin-cleaved when indicated (state in EMSA not explicit); label: 5'-32P; blunt. For orientation: In EMSA bound probe runs differently from free probe, usually more slowly.
Chain of POU2F1 (OCT-1) POU DNA-binding domain, wild type (P14859 280-438): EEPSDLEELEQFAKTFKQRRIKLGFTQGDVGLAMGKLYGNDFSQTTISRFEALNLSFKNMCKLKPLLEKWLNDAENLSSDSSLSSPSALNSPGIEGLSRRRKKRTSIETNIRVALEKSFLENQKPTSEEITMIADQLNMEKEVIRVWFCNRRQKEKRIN

B1: ESR1 promoter POU2F1 element probe (-56 to -42) (dsDNA)
DNA 1: GCTATGGCCTATGCATATGAAGCCTTTATT
DNA 2: AATAAAGGCTTCATATGCATAGGCCATAGC
In the case of B1, the binding result is “binds”.
